The test system of the experiment is carrageenan-induced Paw edema. In words: carrageenan-induced paw edema (CPE) model in mice. As to conditions: 3 mpk. The experiment is classed as in vivo, CD-1 mice. The source says:
This test is a rapid in vivo model for evaluation of anti-inflammatory efficacy of test articles. The CPE model in mice quantitativdy assesses inhibition of edema enduced by subplantarinjection of carrageenan. […] Carrageenan-induced inflammation invoves extravasation of polymorphonuclear leukocytes from circulation to the site of inflammation. The subsequent release of myeloperoxidase and other cytokines within the interstitial tissues results in plasma exudation into the site of inflammation. The increased paw volume is measured by water displacement. Anti-inflammatory drugs reduce the paw edema.
• 1. Receive (SOP 1910, SOP 1920) and quarantine (SOP 560) 125 CD-1 mice (Charles River Laboratories, male, 5-6 weeks old). • 2. Animals are ear tagged (SOP 810), weighed, and sorted into 9 groups with 10 animals/group and 5 groups of 7 animals/group based upon average body weight. • 3. Prepare 3% carrageenan solution: • 1) Preparation at least 2 weeks in advance of use. • 2) Weigh out 600 mg A-carrageenan into a glass beaker. • 3) Add 20 ml deionized water. • 4) Stir on mild heat until carrageenan fully dissolved. • 5) Cool solution to ambient temperature. • 6) Store at 4-8° C. • 4. Until the day of use the renalase peptides are stored at -20° C. as dry powder. • 5. DAY 0 • a. Prepare test material in sterile saline (vehicle). • b. On the day of dosing, renalase peptides are dissolved. • c. On day prior to administration check carrageenan solution for clarity (no visible evidence of contamination). • 1) Equilibrate carrageenan to ambient temperature. • d. Record mouse weights in laboratory notebook. • e. Measure and record paw initial paw volumes: • 1) Place beaker of water on balance and tare to zero. • 2) Place right hind limb in the beaker of water on the scale with the top of the hock centered in the meniscus of the water. Record read-out on the scale. • 3) The foot must be dried after each measurement as wet feet will change the readout. • 4) Re-tare the scale between measurements to account for decrease in water volume. • f. […]
The test was also conducted to compare the inhibition of inflammation by peptide 10 as compared to the corresponding peptide fragment without the alanine substitution at position 220 (peptide 81).
On the technique in general: The carrageenan paw model is a standard test of acute inflammation.

Marks after values point to notes of the source that are not given here.

B1: Renalase: RNLS is a 37 kD secretory protein that is primarily made by kidney proximal renal tubules cells (protein, UniProt Q5VYX0 18-342, looked up)
Renalase: ALLRRQTSGPLYLAVWDKAEDSGGRMTTACSPHNPQCTADLGAQYITCTPHYAKKHQRFYDELLAYGVLRPLSSPIEGMVMKEGDCNFVAPQGISSIIKHYLKESGAEVYFRHRVTQINLRDDKWEVSKQTGSPEQFDLIVLTMPVPEILQLQGDITTLISECQRQQLEAVSYSSRYALGLFYEAGTKIDVPWAGQYITSNPCIRFVSIDNKKRNIESSEIGPSLVIHTTVPFGVTYLEHSIEDVQELVFQQLENILPGLPQPIATKCQKWRHSQVTNAAANCPGQMTLHHKPFLACGGDGFTQSNFDGCITSALCVLEALKNYI
As to B1, the “percent change from control, paw edema, 2 hr after carrageenan” value (2 hr after carrageenan) was 60.1* percent. For the setting “4 hr after carrageenan”, the “percent change from control, paw edema, 4 hr after carrageenan” value was 35.3* percent. Also, the “percent change from control, paw edema, 6 hr after carrageenan” value (6 hr after carrageenan) worked out at 4.5%. For the same molecule, the “percent change from control, paw edema, 10 hr after carrageenan” value (10 hr after carrageenan) is given as 23.7%.
